The text below walks through data of US20230002496A1 (STAIDSON BEIJING BIOPHARMACEUTICALS, published 2023).

The target of the experiment is T1, human GM-CSFRα, full length on cells (human, UniProt P15509 23-400).
T1 sequence: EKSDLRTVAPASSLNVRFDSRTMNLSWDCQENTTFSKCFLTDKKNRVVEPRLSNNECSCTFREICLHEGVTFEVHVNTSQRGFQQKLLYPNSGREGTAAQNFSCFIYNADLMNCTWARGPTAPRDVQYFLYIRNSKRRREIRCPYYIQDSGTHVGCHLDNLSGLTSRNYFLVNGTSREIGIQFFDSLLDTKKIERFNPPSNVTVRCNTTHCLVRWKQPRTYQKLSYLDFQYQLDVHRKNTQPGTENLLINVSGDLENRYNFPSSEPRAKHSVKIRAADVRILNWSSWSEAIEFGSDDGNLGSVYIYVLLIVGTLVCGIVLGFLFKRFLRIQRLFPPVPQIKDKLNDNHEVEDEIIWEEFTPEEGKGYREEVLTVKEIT
The experiment in a line: cell-based or functional assay.

B1: E35-scFv LA51L (scFv, V domains shown)
VH: QMQLVQSGAEVKKPGASVKVSCKVSGYTLTELSIHWVRQAPGKGLEWMGGFDPEDGETIYAQKFQGRVTMTGDTSTDTAYLELSSLRSEDTALYYCATGRYTSLATTYGFDYWGQGTLVTVSS
VL: EIVMTQSPATLSLSPGERATLSCRASQSVSSYLAWYQQKPGQAPRLLIYGLSSRATGIPDRFSGSGSGTDFTLTISRLEPEDFAVYYCQQYDNWPYTFGQGTKLEIK
In the case of B1, the “IC50, TF-1 cell proliferation” value was 0.5 µg/mL.

B2: E35-scFv LG50D (scFv, V domains shown)
VH: QMQLVQSGAEVKKPGASVKVSCKVSGYTLTELSIHWVRQAPGKGLEWMGGFDPEDGETIYAQKFQGRVTMTGDTSTDTAYLELSSLRSEDTALYYCATGRYTSLATTYGFDYWGQGTLVTVSS
VL: EIVMTQSPATLSLSPGERATLSCRASQSVSSYLAWYQQKPGQAPRLLIYDASSRATGIPDRFSGSGSGTDFTLTISRLEPEDFAVYYCQQYDNWPYTFGQGTKLEIK
Turning to B2, the “IC50, TF-1 cell proliferation” value was found to be 0.88 µg/mL.

B3: E35-scFv LG50N (scFv, V domains shown)
VH: QMQLVQSGAEVKKPGASVKVSCKVSGYTLTELSIHWVRQAPGKGLEWMGGFDPEDGETIYAQKFQGRVTMTGDTSTDTAYLELSSLRSEDTALYYCATGRYTSLATTYGFDYWGQGTLVTVSS
VL: EIVMTQSPATLSLSPGERATLSCRASQSVSSYLAWYQQKPGQAPRLLIYNASSRATGIPDRFSGSGSGTDFTLTISRLEPEDFAVYYCQQYDNWPYTFGQGTKLEIK
Regarding B3, the “IC50, TF-1 cell proliferation” value was found to be 1.59 µg/mL.

B4: E35-scFv LA51W (scFv, V domains shown)
VH: QMQLVQSGAEVKKPGASVKVSCKVSGYTLTELSIHWVRQAPGKGLEWMGGFDPEDGETIYAQKFQGRVTMTGDTSTDTAYLELSSLRSEDTALYYCATGRYTSLATTYGFDYWGQGTLVTVSS
VL: EIVMTQSPATLSLSPGERATLSCRASQSVSSYLAWYQQKPGQAPRLLIYGWSSRATGIPDRFSGSGSGTDFTLTISRLEPEDFAVYYCQQYDNWPYTFGQGTKLEIK
B4: the “IC50, TF-1 cell proliferation” value is 1.59 µg/mL.

B5: E35-scFv LG50Q (scFv, V domains shown)
VH: QMQLVQSGAEVKKPGASVKVSCKVSGYTLTELSIHWVRQAPGKGLEWMGGFDPEDGETIYAQKFQGRVTMTGDTSTDTAYLELSSLRSEDTALYYCATGRYTSLATTYGFDYWGQGTLVTVSS
VL: EIVMTQSPATLSLSPGERATLSCRASQSVSSYLAWYQQKPGQAPRLLIYQASSRATGIPDRFSGSGSGTDFTLTISRLEPEDFAVYYCQQYDNWPYTFGQGTKLEIK
As to B5, the “IC50, TF-1 cell proliferation” value amounted to 0.93 µg/mL.

B6: E35-scFv LG50Y (scFv, V domains shown)
VH: QMQLVQSGAEVKKPGASVKVSCKVSGYTLTELSIHWVRQAPGKGLEWMGGFDPEDGETIYAQKFQGRVTMTGDTSTDTAYLELSSLRSEDTALYYCATGRYTSLATTYGFDYWGQGTLVTVSS
VL: EIVMTQSPATLSLSPGERATLSCRASQSVSSYLAWYQQKPGQAPRLLIYYASSRATGIPDRFSGSGSGTDFTLTISRLEPEDFAVYYCQQYDNWPYTFGQGTKLEIK
For the molecule B6, the “IC50, TF-1 cell proliferation” value came out at 32 µg/mL.

B7: E35-scFv LG50E (scFv, V domains shown)
VH: QMQLVQSGAEVKKPGASVKVSCKVSGYTLTELSIHWVRQAPGKGLEWMGGFDPEDGETIYAQKFQGRVTMTGDTSTDTAYLELSSLRSEDTALYYCATGRYTSLATTYGFDYWGQGTLVTVSS
VL: EIVMTQSPATLSLSPGERATLSCRASQSVSSYLAWYQQKPGQAPRLLIYEASSRATGIPDRFSGSGSGTDFTLTISRLEPEDFAVYYCQQYDNWPYTFGQGTKLEIK
B7: the “IC50, TF-1 cell proliferation” value amounted to 29.9 µg/mL.

B8: E35-scFv LG50V (scFv, V domains shown)
VH: QMQLVQSGAEVKKPGASVKVSCKVSGYTLTELSIHWVRQAPGKGLEWMGGFDPEDGETIYAQKFQGRVTMTGDTSTDTAYLELSSLRSEDTALYYCATGRYTSLATTYGFDYWGQGTLVTVSS
VL: EIVMTQSPATLSLSPGERATLSCRASQSVSSYLAWYQQKPGQAPRLLIYVASSRATGIPDRFSGSGSGTDFTLTISRLEPEDFAVYYCQQYDNWPYTFGQGTKLEIK
Regarding B8, the “IC50, TF-1 cell proliferation” value was determined as 1.4 µg/mL.

B9: E35-scFv LG50H (scFv, V domains shown)
VH: QMQLVQSGAEVKKPGASVKVSCKVSGYTLTELSIHWVRQAPGKGLEWMGGFDPEDGETIYAQKFQGRVTMTGDTSTDTAYLELSSLRSEDTALYYCATGRYTSLATTYGFDYWGQGTLVTVSS
VL: EIVMTQSPATLSLSPGERATLSCRASQSVSSYLAWYQQKPGQAPRLLIYHASSRATGIPDRFSGSGSGTDFTLTISRLEPEDFAVYYCQQYDNWPYTFGQGTKLEIK
On to B9, for which the “IC50, TF-1 cell proliferation” value is 4.29 µg/mL.

B10: E35-scFv LG50R (scFv, V domains shown)
VH: QMQLVQSGAEVKKPGASVKVSCKVSGYTLTELSIHWVRQAPGKGLEWMGGFDPEDGETIYAQKFQGRVTMTGDTSTDTAYLELSSLRSEDTALYYCATGRYTSLATTYGFDYWGQGTLVTVSS
VL: EIVMTQSPATLSLSPGERATLSCRASQSVSSYLAWYQQKPGQAPRLLIYRASSRATGIPDRFSGSGSGTDFTLTISRLEPEDFAVYYCQQYDNWPYTFGQGTKLEIK
As to B10, the “IC50, TF-1 cell proliferation” value was 2.79 µg/mL.

B11: E35-scFv LA51E (scFv, V domains shown)
VH: QMQLVQSGAEVKKPGASVKVSCKVSGYTLTELSIHWVRQAPGKGLEWMGGFDPEDGETIYAQKFQGRVTMTGDTSTDTAYLELSSLRSEDTALYYCATGRYTSLATTYGFDYWGQGTLVTVSS
VL: EIVMTQSPATLSLSPGERATLSCRASQSVSSYLAWYQQKPGQAPRLLIYGESSRATGIPDRFSGSGSGTDFTLTISRLEPEDFAVYYCQQYDNWPYTFGQGTKLEIK
Turning to B11, the “IC50, TF-1 cell proliferation” value was determined as 0.81 µg/mL.

B12: E35-scFv LG50S (scFv, V domains shown)
VH: QMQLVQSGAEVKKPGASVKVSCKVSGYTLTELSIHWVRQAPGKGLEWMGGFDPEDGETIYAQKFQGRVTMTGDTSTDTAYLELSSLRSEDTALYYCATGRYTSLATTYGFDYWGQGTLVTVSS
VL: EIVMTQSPATLSLSPGERATLSCRASQSVSSYLAWYQQKPGQAPRLLIYSASSRATGIPDRFSGSGSGTDFTLTISRLEPEDFAVYYCQQYDNWPYTFGQGTKLEIK
B12: the “IC50, TF-1 cell proliferation” value turned out to be 1.3 µg/mL.

B13: E35-scFv LA51Q (scFv, V domains shown)
VH: QMQLVQSGAEVKKPGASVKVSCKVSGYTLTELSIHWVRQAPGKGLEWMGGFDPEDGETIYAQKFQGRVTMTGDTSTDTAYLELSSLRSEDTALYYCATGRYTSLATTYGFDYWGQGTLVTVSS
VL: EIVMTQSPATLSLSPGERATLSCRASQSVSSYLAWYQQKPGQAPRLLIYGQSSRATGIPDRFSGSGSGTDFTLTISRLEPEDFAVYYCQQYDNWPYTFGQGTKLEIK
B13: the “IC50, TF-1 cell proliferation” value stood at 18.2 µg/mL.

B14: E35-scFv LA51P (scFv, V domains shown)
VH: QMQLVQSGAEVKKPGASVKVSCKVSGYTLTELSIHWVRQAPGKGLEWMGGFDPEDGETIYAQKFQGRVTMTGDTSTDTAYLELSSLRSEDTALYYCATGRYTSLATTYGFDYWGQGTLVTVSS
VL: EIVMTQSPATLSLSPGERATLSCRASQSVSSYLAWYQQKPGQAPRLLIYGPSSRATGIPDRFSGSGSGTDFTLTISRLEPEDFAVYYCQQYDNWPYTFGQGTKLEIK
In the case of B14, the “IC50, TF-1 cell proliferation” value worked out at 2.1 µg/mL.

B15: E35-scFv LG50C (scFv, V domains shown)
VH: QMQLVQSGAEVKKPGASVKVSCKVSGYTLTELSIHWVRQAPGKGLEWMGGFDPEDGETIYAQKFQGRVTMTGDTSTDTAYLELSSLRSEDTALYYCATGRYTSLATTYGFDYWGQGTLVTVSS
VL: EIVMTQSPATLSLSPGERATLSCRASQSVSSYLAWYQQKPGQAPRLLIYCASSRATGIPDRFSGSGSGTDFTLTISRLEPEDFAVYYCQQYDNWPYTFGQGTKLEIK
Consider B15, for which the “IC50, TF-1 cell proliferation” value amounted to 25.7 µg/mL.

B16: E35-scFv LG50T (scFv, V domains shown)
VH: QMQLVQSGAEVKKPGASVKVSCKVSGYTLTELSIHWVRQAPGKGLEWMGGFDPEDGETIYAQKFQGRVTMTGDTSTDTAYLELSSLRSEDTALYYCATGRYTSLATTYGFDYWGQGTLVTVSS
VL: EIVMTQSPATLSLSPGERATLSCRASQSVSSYLAWYQQKPGQAPRLLIYTASSRATGIPDRFSGSGSGTDFTLTISRLEPEDFAVYYCQQYDNWPYTFGQGTKLEIK
As to B16, the “IC50, TF-1 cell proliferation” value was determined as 0.25 µg/mL.

B17: E35-scFv LG50L (scFv, V domains shown)
VH: QMQLVQSGAEVKKPGASVKVSCKVSGYTLTELSIHWVRQAPGKGLEWMGGFDPEDGETIYAQKFQGRVTMTGDTSTDTAYLELSSLRSEDTALYYCATGRYTSLATTYGFDYWGQGTLVTVSS
VL: EIVMTQSPATLSLSPGERATLSCRASQSVSSYLAWYQQKPGQAPRLLIYLASSRATGIPDRFSGSGSGTDFTLTISRLEPEDFAVYYCQQYDNWPYTFGQGTKLEIK
Turning to B17, the “IC50, TF-1 cell proliferation” value was 3.9 µg/mL.

B18: E35-scFv LG50P (scFv, V domains shown)
VH: QMQLVQSGAEVKKPGASVKVSCKVSGYTLTELSIHWVRQAPGKGLEWMGGFDPEDGETIYAQKFQGRVTMTGDTSTDTAYLELSSLRSEDTALYYCATGRYTSLATTYGFDYWGQGTLVTVSS
VL: EIVMTQSPATLSLSPGERATLSCRASQSVSSYLAWYQQKPGQAPRLLIYPASSRATGIPDRFSGSGSGTDFTLTISRLEPEDFAVYYCQQYDNWPYTFGQGTKLEIK
With B18, the “IC50, TF-1 cell proliferation” value was 1.86 µg/mL.

B19: E35-scFv LG50I (scFv, V domains shown)
VH: QMQLVQSGAEVKKPGASVKVSCKVSGYTLTELSIHWVRQAPGKGLEWMGGFDPEDGETIYAQKFQGRVTMTGDTSTDTAYLELSSLRSEDTALYYCATGRYTSLATTYGFDYWGQGTLVTVSS
VL: EIVMTQSPATLSLSPGERATLSCRASQSVSSYLAWYQQKPGQAPRLLIYIASSRATGIPDRFSGSGSGTDFTLTISRLEPEDFAVYYCQQYDNWPYTFGQGTKLEIK
Consider B19, for which the “IC50, TF-1 cell proliferation” value came out at 1.08 µg/mL.

B20: E35-scFv LG50A (scFv, V domains shown)
VH: QMQLVQSGAEVKKPGASVKVSCKVSGYTLTELSIHWVRQAPGKGLEWMGGFDPEDGETIYAQKFQGRVTMTGDTSTDTAYLELSSLRSEDTALYYCATGRYTSLATTYGFDYWGQGTLVTVSS
VL: EIVMTQSPATLSLSPGERATLSCRASQSVSSYLAWYQQKPGQAPRLLIYAASSRATGIPDRFSGSGSGTDFTLTISRLEPEDFAVYYCQQYDNWPYTFGQGTKLEIK
B20: the “IC50, TF-1 cell proliferation” value was 0.5 µg/mL.
